Assays:
human C4b (human) = target: T1, human C4b (human) (UniProt P0C0L4)
T1 sequence: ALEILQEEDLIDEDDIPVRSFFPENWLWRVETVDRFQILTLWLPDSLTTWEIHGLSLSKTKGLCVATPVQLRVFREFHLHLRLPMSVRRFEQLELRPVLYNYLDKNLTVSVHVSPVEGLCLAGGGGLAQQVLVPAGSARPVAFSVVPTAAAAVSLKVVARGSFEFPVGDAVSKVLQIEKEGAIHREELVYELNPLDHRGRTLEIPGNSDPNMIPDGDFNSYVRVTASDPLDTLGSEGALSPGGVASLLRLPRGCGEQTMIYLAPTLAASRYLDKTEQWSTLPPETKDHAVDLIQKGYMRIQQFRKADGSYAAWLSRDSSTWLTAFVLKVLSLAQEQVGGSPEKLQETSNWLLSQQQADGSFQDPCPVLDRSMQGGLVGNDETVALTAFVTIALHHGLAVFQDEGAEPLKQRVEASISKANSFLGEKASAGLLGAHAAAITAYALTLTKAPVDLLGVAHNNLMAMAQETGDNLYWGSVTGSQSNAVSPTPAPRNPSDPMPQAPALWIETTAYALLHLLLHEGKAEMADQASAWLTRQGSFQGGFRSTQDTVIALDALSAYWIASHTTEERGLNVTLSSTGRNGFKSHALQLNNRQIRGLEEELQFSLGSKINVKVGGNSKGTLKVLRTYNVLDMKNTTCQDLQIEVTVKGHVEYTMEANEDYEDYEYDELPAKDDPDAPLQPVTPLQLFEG

[1] = target: soluble human C3b (human) (UniProt P01024)

Substance	C4b Screen Ref Fold (fold of CFI-HSA wild type) (human C4b (human))	iC3b Screen Ref Fold (fold of CFI-HSA wild type) [1]	C4b Screen Ref Fold (fold of reference) (human C4b (human))	iC3b Screen Ref Fold (fold of reference) [1]
CFI-HSA variant V390G (enzyme)	–	–	0.5	0.35
CFI-HSA N531G; E457G; R462K; F464Y (enzyme)	6.38	1.32	–	–
CFI-HSA variant D425K; K504R (enzyme)	0.12	2.05	–	–
CFI-HSA variant G406A; D425K; E457G; E461Q; N531G (enzyme)	3.17	0.18	–	–
CFI-HSA D425T (enzyme)	2.05	2.16	–	–
CFI-HSA variant D425K; Y408M; E530F; P558S (enzyme)	0.07	1.53	–	–
CFI-HSA variant G406D; P535A (enzyme)	–	–	0.95	0.13
CFI-HSA T346K; Y408L; K504D; E530K; N531G (enzyme)	0.04	0.29	–	–
CFI-HSA Y408L; E530K; N531G (enzyme)	4.89	1.12	–	–
CFI-HSA N531G; R462K; F464Y (enzyme)	6.27	0.78	–	–
CFI-HSA variant E461P (enzyme)	–	–	-0.01	0.02
CFI-HSA N531G; P535A; S507A; GGSSGG (SEQ ID NO: 6); CCP_1-4 (enzyme)	0.2	-0.02	–	–
CFI-HSA N531G; E461Q; R462K; F464Y (enzyme)	6.37	1.54	–	–
CFI-HSA variant K312A (enzyme)	–	–	0.09	0.84

Now from value to substance:

C4b Screen Ref Fold (fold of CFI-HSA wild type) (human C4b (human))	iC3b Screen Ref Fold (fold of CFI-HSA wild type) [1]	C4b Screen Ref Fold (fold of reference) (human C4b (human))	iC3b Screen Ref Fold (fold of reference) [1]	Substance
2.65	0.92	–	–	CFI-HSA K534S (enzyme)
-0.02	0.02	–	–	CFI-HSA variant H383G (enzyme)
0.08	0.09	–	–	CFI-HSA variant V463G (enzyme)
3.17	0.46	–	–	CFI-HSA variant R557A; N531M; Y403F; K504Y; E457G; E461V (enzyme)
–	–	0.04	0	CFI-HSA variant G469L (enzyme)
4.44	1.03	–	–	CFI-HSA Y408L; E461Q (enzyme)
0.16	-0.02	–	–	CFI-HSA D506I (enzyme)
0	0.02	–	–	CFI-HSA variant Q373G (enzyme)
1.29	0.57	–	–	CFI-HSA P535V (enzyme)

— patent publication US20230038638A1, “COMPLEMENT FACTOR I-RELATED COMPOSITIONS AND METHODS” (published 2023)
